Test results from the DeepSol protein solubility set.

Assay: soluble on expression in E. coli; label from the status in PepcDB or PDB records

Soluble on expression in E. coli, not soluble:
MGSDKIHHHHHHMNIQEKSKIEYRSRINRVMDYIDIHLDQPLELKSIAEIANFSPFHFHRIFTFLIGETPIDYIQRLRIEKAACRLRENMDISISEIADSCGFCTVSLFSRVFKKFFGLTPSQFRKTERPVYAQDGILFSKNGQMVSKNLTPKHVLSPQLCSVKFKISYFMETKIEVKEMPDMKAVYCRHMGAFKEIVKAYEKLIKWAEPRGLYIPNVTKSATVTHDDPSVTELSKVRQSACIIVEGDVKGEGEIGNLVIPGGQYAVGHFELGTEDFEKAWNTMCKWFTESGYQQGDGCTYELYHNSHRTHPENKHIVDICIPIKPL
MGSDKIHHHHHHMNIQQLRYVVAIANNGTFREAASKLFVSQPSLSVSIKDLEAELGFQIFNRTTSGTVLTSQGLVFYEKALEVVKSFDSFEKTFSQADLDQNEFSIASQHYDFLPPLITAFSQQYDGHRVFRIFESTTIQILDEVAQGNSEIGIIYLNVDNQKGLFQRMDKLGLEYVSLIPFTTHIYLSKTHPLANREALYLNDIQGLPAVRFTQERDEYLYYSENFVDTSECPRIYNVSDRATLNGILERTNAFATGSGFLDHRSVNGIKVIPLADHIDNQMIYVKRKDKNLSVAGATFVTILKDYFDKRRKALT
MGSDKIHHHHHHMNIQQLRYVVAIANSGTFREAAAKLFVSQPSLSVAVRDLETELGFQIFTRTTTGAVLTNQGMTFYENALEVVKSFDSFEKQFSQSEATEQEFSIASQHYDFLPPLITAFSKCNDNFSYFRIFESTTIRILDEVAQGNSEIGIIYINSQNKKGLLQRLDKLGLEFVELIPFKTHIYLGKDHPLASKTSLIMTDLEGLPTVRFTQDRDDYRYYSENFVEVLDSSVTYNVTDRATLNGILERTQAYATGSGFLDSRSVNGITVIPLEDHLDNQMIYIKRKDRNLSQMALKFVAVMEEYFKGFNS
MGSDKIHHHHHHMNKIGYNMFQVDKNYWLVIAPYVYCCIKGKKALLYNTKNWEYLEVENENVIGLLRQLHKRDNLGAVFCEGKMLTELCYSNFISDFVLKEMGGVIDVASFPDKPIQMMPILNLQCDVDKLQQIEDRGIGEDILFNLLEINVFLYNVCDHHCLYCSKYSQQNLCCRVAETETSQVLDISALKSIIAQIRYGVVGRLNLFGGNIWKYPNYNDIPFLLSGFKGQIHIWSHYADFVGNKILDSDFFYDVIVPFPMEEELLRNCIFLLGDLQIKIHFYVTQIDEYAKAEEIVHKYAINDYSIHSTYVGCNLDYFEKYVYMDKGDILQSQYSMSQIFAHQKMNSHFFGSLSISVNGDVYANLNSLVLGNIYKDSLIDIVNKEMLDNTAWRKIRNDYPCCDCIYQWLCPSPSNYELAIGKPNLCHVKP
MGSDKIHHHHHHMNLGNPIAKGNTAEIYLYDNKIMKLFKDYLPNTESMNEAKKQKYAYSCGLPVPNVFEVTKIQNRQAIIMEYVKGDSIGDLLLNNLNEAEYYINICVNEQKKIHAIHVNTDEMEAMGERLERQIKSVHKLDEKQKESILNKLHSIKLDPRLCHGDFHPFNLILSEKNVSIIDWIDASSGDIRADLFRTYLLYSQSSVELAEKYLHIYCRNTGLSRDEIFQWAPIIIAARISENVTATNIEYLNDLVAQYCN
MGSDKIHHHHHHMNLKNTKAGFLLSAEHEKLPIAELNALIDIFSLEGNLNCFKNYVILDSSISEEIIKKMVKRGGYTNEGHVIFSESPIINQNVDETLENFFKSSETLDFPVERDETFAVRVLKLEKESPFNSMEIERKLGGIIKKKTSAQVSLKNPSKTVKVVISNDKMYTGIVIEKRDVEYFQNNRPHLRAYFHPGCIMPKLARCLVNLSRVKEGEIVLDPFCGTGGFLIEAGFLGCKLIGSDIDEQMVNGALLNLNTYDLSKQVISIKENDAKNVSKYLEALKIEKIDGIVTDPPYGISTSKKGDMLEIFEKIVDVLKDNDYLVFAAPNKMELDLNLVEFYEMRVHKSLTRYIHVYRKN
MGSDKIHHHHHHMNLSNDSLNKSDISPAVAQQAVGWLLEMQEGALDARRQHAWQSWLNGNSEHQRAWAHMQRVNQRLSGLSSPLAHAALGAPKSAGRRHALKLLLLLGAGSMAGWSLREQIALQPLLADYNSGVGEQRKVALSDGSRVQLNTASAVDVRFDAQQRLIKLLQGELLMSASADARPLNLLSAQGTVRASTGSSRFNLRQLDGRTQLAVFAGAIEVAPANKSGPGLMLRASQQVTFGRDAWDSVRTVDANSGAWADGMLVASRMKLSDFLAELGRYRRGRLNCDANVADLLISGSYPLADSERILDMLQLALPVRVQRFTRYWVNVQARV
MGSDKIHHHHHHMNMLLSEEQRDALQELMNISMGQAANSLARLIEAKITLSIPKISDVTPEQFVSMLSDQTMWYTRQSFLGSIKGEVISTLSKQGCDAIGKLMDYQPPLTQDRLNELLLELANILAGACLTGFAEQLSLNAKLSMPTMYSATSQHYHYRWASTLMMEVEFKVEVSQFDSKIVICLEEASVQTLLAKLQQLLE
MGSDKIHHHHHHMNNFFTRVDNLSRLSVEKHNVAFSLFDWPAHIAEDTWWQSPDVLSIALTDHIEQWDEAQLIKLAKWECINSFSLNYTGELELIQEVSRILDKVALSDAREYLYHLIDEENQHMWYFQKFCRAYGGKVYPNKKFQIEKQLMSPAKEHFLVFARILIFEEIGHYYNIQNARDSRVHPFVREINEAHYKDESRHIAYGRQVLEHLAKDAITDEGDALWLGQQLDKSIAINIAALYNPQAYRDAGITKGMALRESLLNHPNRIELHETKLLGSFKRHAERLGITLTDTRK
MGSDKIHHHHHHMNNIYSDIYEKLSTLQWLMKRHQMFCQAESGPFADTSRGQGRILAMLKIQPEIATKELAYLLGIRQQSLNELLNKMEKNGYVERKPSENDKRVMIVHLTEKGKQVQQPKTDYQNIFNCLLPEELLQMSQYLDRIIEAFQLQNGNALEENNMIDWMAQARERMGDEHFEQLMSMRERAFGHMRPPKDIPGAERFSENYNGYVPDRDGFQPRNFRPDIK
MGSDKIHHHHHHMNPSSRHPQHSDTAASGASEGVPRRYASGRQYELRRGDALAVVTELAAGLRLYSRGGVQLTETYGDGDIPPGATGITLAPWANRVEDGVWYLNGKKQQLDITEVSRNNASHGLLRNAAYELVDEAEFSVTLEAPVFPQHGYPFLVRHRVQYLLAEDLGLVVRQTLLNDSQAPAPFVLGAHPYLRLGDVPASDLVLTVGTGSRLVADERLIPRSSEQVDGATDLRGGRTVSELDIDVAYTDLTFDGGVARQTLKASDGRSVSLWQDENCSYVHVFVTDQYPGRAKAVAIEPMTGPANAFNSGDGLRWLPAGESFTMTWGISASL
MGSDKIHHHHHHMNQTTLNTIRNYVMQASAQWISDFNQGNVQTCINRYLPSATMQVHPFGKFTSIEAIADFWLEFAKSNPSDLVYRNIEIKVLNDRQAVLSANWRMNIASGFISKELWTLAEDGQWYLEEDDFTVLAQHTKPVDDKRTALVLVDLQNDYFSGGRFELDNTDSAAKQASQLLAHFRQKELPVIHMQHLFEETNAAFFSANTVGAEIESSVKPTANEPVIIKHQIDSFIETTLEQTLVELGIDNLVIVGAMAQACVQTLCRSAVNKGYKCQVISDAIAAPKLEYQQHSFTGGQLVAANLLSLSFGGADITDTKGWLQENK
MGSDKIHHHHHHMNRGKALQLVKPHLTEHRYQHTIGVMETAIDLAKLYGADQQKAELAAIFHDYAKFRDKNEMRTLIREKLSQQDILFYGDELLHAPCGAYYVREEVGIEDEDVLQAIRFHTTGRPNMSLLEKIIFLADYIEPNRQFPGVEKVRTQAKTDLNGAIISSLVNTITFLLKKNQPIYPDTLATYNQLLLEQK
MGSDKIHHHHHHMNRLEIVNNISTNIERERIKLGMSQAQFAKALDMSLSTYKRIANGESSRIDVYTAYLIYKLTGRFSCELTGFNDDVINLVKRIKKLSKSQRILIDSIIDTELALSAYKDESCHTEDLISVLIPTGNMTDGMILDSYNVEKLDVSNYRKAFGDALHIGIRITSNHLHPVYNKGDILLISRNPIRDGDTGIFINAQNKRAYIRKLHQKNPCELTPINNYGETFYVDSDNVDDMSKWIKFGHVLCKVR
MGSDKIHHHHHHMNRYLIIARVGDNSLHPTWINSEKRNFDLFISYFGNEEKKYSEHADYYEHMKGGKWPIISRLIDKNWEIISKYDAVWFPDDDLLVDTNSICKMFDLFSAFDLSLAQPALSMDSYFSHPCLLQQKKSIIRFTNFVEVMAPIFSLSSLERVKHTFSQSKSGWGLDFLWPHMINGKIGIIDVTPVIHTRPIGGELYKLNPELSPKMDIVKLQEIYPDIILNKKYKKNKFKVFSQILETRTLNEKMAYFKGKVQVALAKKVSKETKKYGA
MGSDKIHHHHHHMNSIFTEENLLAFTTAARFGSFSKAAEELGLTTSAISYTIKRMETGLDVVLFTRSTRSIELTESGRYFFRKATDLLNDFYAIKRRIDTISQGIEARVRICINQLLYTPKHTARLLQVLKKQFPTCQITVTTEVYNGVWDAIINNQANIAIGAPDTLLDGGGIDYTEIGAIRWAFAIAPDHPLAFVPEPIAESQLRLYPNIMVEDTAHTINKKVGWLLHGQESILVPDFNTKCQCQILGEGIGFLPDYMVREAMTQSLLVTRQIHNPRQDSRMLLATQHSATGQVTQWIKKQFAPNGILTGIYQDLLHREN
MGSDKIHHHHHHMNSILINHKAKADISISCFGEVLWDCFPDGKRVGGAPLNVCVRLNALGIKGSMISAVGDDPLGHELVSFIDDRGVNRDCIAIDPVKSTSTVQVTLDKNGSASYDIVADTAWDNIALTEDIIEQVNRTDVLVFGSLIGRNDVSLNTLTALVKLASFSVFDVNLRAPHYQIDSVINLMKKADFIKLNDDELYEIAKAMGSPFHSLEQNLDFVAIQTNTDYLCVTKGSHGALLSIGGQKYYNSGYLVNVVDTVGAGDSFLGSLLYQLCSDSNPQYAIDFACAVGAMVAESHGATPMITLNEIQAFMHPV
MGSDKIHHHHHHMNSIVNDLNRALAQHLLVNVYQTNQEVVYTGYVTTVSDTGIILATYDDYGIPDGAVFLDLTAIDEVEFSSDDLDNMAFRIQTAQDEQFVQAGGLTLQFDGHRDLKRQVLSHAWVDHLVLMLVLKDDEHFYEGIVTSVAAEQVSLQLLNKFDYTDQPLLTLTPKDIEVIEFQGQELTLQGIALPHLQKLSHVAPTTVTDADQFVPTLQQLVGKEPLVALVPKHNRELFFVGRINTVTADGVIMNLLDMTGQFGGYTLMRLSELHEIVLKSDYLQTMRLFALLNRARQQPIQPVLNDERLFDATVDQFGARISQAAAFRTIIRLKLHDGTDLLGFPSQVGGQRFIFHEIDDQQVDQVGQVYRLADVDEVAFGYLDAYLVERQLRVEGDL
MGSDKIHHHHHHMNSSVKTRILQPLRIGKHIARHPIIQGAMAVRVSGAKLAGAVANAGGVGVIASLGLGLDSPYFDKRKKRSFFTANRLALIDELAKARSISPDGVIGVNILVATKDYSVLAQTAAAQGADIIITGAGLPLALPEYTAAYPDVALVPSVANLEAAQLICETWQSRYHRLPDALIVENCQQVGGHFTQCEQVNIPGFSLELVIRQLRDYCQNHLGARIPLIVSGGISDRTDIDRMIAIGADGVQIGTRFVTTVECDADQRYKDYHLQAQPEDIVTVPSPVGKPSRALHNLFTEQVMSNSSNLEKRCIANCLETCLCRDHGKTYCLLQALAQAARGDVENGLIFSGANAGYTQDIISVPELMTELTQAHTIEVSSSDKY
